Blank lines part the entries; values can stand above or below the molecule they belong to.
How the values were obtained:
[1] = molecular target: FcRn (UniProt P55899); experiment: SPR
[2] = molecular target: FcγRI (UniProt P12314); experiment: SPR
[3] = molecular target: FcγRIIA_(H131) (UniProt P12318); experiment: SPR
[4] = molecular target: FcγRIIIA_(F158) (UniProt P08637); experiment: SPR
[5] = molecular target: FcγRIIIA_(V158); experiment: SPR
[6] = molecular target: human Claudin18.2 (Homo sapiens, UniProt P56856-2); experiment: flow cytometry on cells

FcγRI, sequence (P12314 16-374): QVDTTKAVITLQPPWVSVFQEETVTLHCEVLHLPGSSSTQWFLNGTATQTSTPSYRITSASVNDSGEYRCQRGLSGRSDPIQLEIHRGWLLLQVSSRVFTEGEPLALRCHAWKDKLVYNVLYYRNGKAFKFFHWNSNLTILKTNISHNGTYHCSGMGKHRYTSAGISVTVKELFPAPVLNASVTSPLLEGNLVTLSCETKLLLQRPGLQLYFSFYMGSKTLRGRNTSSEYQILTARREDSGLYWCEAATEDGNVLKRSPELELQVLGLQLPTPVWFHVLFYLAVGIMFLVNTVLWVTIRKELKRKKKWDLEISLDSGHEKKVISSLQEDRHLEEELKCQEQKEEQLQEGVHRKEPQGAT
FcγRIIIA_(F158), sequence (P08637 17-254): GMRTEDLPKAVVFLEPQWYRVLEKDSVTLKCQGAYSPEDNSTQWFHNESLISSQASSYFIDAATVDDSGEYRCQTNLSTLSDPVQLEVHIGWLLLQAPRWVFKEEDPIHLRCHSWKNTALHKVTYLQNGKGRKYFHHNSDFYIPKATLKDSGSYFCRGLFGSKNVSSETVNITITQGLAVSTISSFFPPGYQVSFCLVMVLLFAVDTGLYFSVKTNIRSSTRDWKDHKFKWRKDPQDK
FcγRIIIA_(V158), sequence (P08637 17-208): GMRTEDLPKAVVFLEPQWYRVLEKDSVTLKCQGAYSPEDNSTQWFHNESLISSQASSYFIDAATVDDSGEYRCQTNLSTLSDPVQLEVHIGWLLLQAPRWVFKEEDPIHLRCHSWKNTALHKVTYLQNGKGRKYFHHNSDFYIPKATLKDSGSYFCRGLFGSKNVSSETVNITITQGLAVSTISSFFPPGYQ
FcγRIIA_(H131), sequence (P12318 34-317): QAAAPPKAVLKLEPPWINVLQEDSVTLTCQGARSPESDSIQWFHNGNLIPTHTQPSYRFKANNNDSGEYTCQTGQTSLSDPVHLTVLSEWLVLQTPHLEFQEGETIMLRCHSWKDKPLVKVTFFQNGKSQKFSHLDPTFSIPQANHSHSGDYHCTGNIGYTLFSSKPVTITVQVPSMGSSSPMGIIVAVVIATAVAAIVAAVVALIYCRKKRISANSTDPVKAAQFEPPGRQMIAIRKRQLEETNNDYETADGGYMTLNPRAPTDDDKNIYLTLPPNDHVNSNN

Kd [1]: 1730 nM | Kd [2]: 5.95 nM | Kd [3]: 6.29 µM | Kd [4]: 490 nM | Kd [5]: 126 nM
Molecule: CMG901 (antibody)

Kd [1]: 1530 nM | Kd [2]: 7.23 nM | Kd [3]: 2.77 µM | Kd [4]: 330 nM | Kd [5]: 78.9 nM
Molecule: CM311 (antibody)

EC50 [6]: 2.2 nM
B1: Zolbetuximab analog (antibody, V domains shown)
VH: QVQLQQPGAELVRPGASVKLSCKASGYTFTSYWINWVKQRPGQGLEWIGNIYPSDSYTNYNQKFKDKATLTVDKSSSTAYMQLSSPTSEDSAVYYCTRSWRGNSFDYWGQGTTLTVSS
VL: DIVMTQSPSSLTVTAGEKVTMSCKSSQSLLNSGNQKNYLTWYQQKPGQPPKLLIYWASTRESGVPDRFTGSGSGTDFTLTISSVQAEDLAVYYCQNDYSYPFTFGSGTKLEIK
